Results published in PMC8649222, “Exclusive inhibition of IL-6 trans-signaling by soluble gp130^FlyRFc” (Cytokine: X, 2021).
Residue numbers refer to the chain shown, from its start.

B1: sgp130Fc (Fc fusion, human, UniProt P40189 23-619, looked up)
chain: ELLDPCGYISPESPVVQLHSNFTAVCVLKEKCMDYFHVNANYIVWKTNHFTIPKEQYTIINRTASSVTFTDIASLNIQLTCNILTFGQLEQNVYGITIISGLPPEKPKNLSCIVNEGKKMRCEWDGGRETHLETNFTLKSEWATHKFADCKAKRDTPTSCTVDYSTVYFVNIEVWVEAENALGKVTSDHINFDPVYKVKPNPPHNLSVINSEELSSILKLTWTNPSIKSVIILKYNIQYRTKDASTWSQIPPEDTASTRSSFTVQDLKPFTEYVFRIRCMKEDGKGYWSDWSEEASGITYEDRPSKAPSFWYKIDPSHTQGYRTVQLVWKTLPPFEANGKILDYEVTLTRWKSHLQNYTVNATKLTVNLTNDRYLATLTVRNLVGKSDAAVLTIPACDFQATHPVMDLKAFPKDNMLWVEWTTPRESVKKYILEWCVLSDKAPCITDWQQEDGTVHRTYLRGNLAESKCYLITVTPVYADGPGSPESIKAYLKQAPPSKGPTVRTKKVGKNEAVLEWDQLPVDVQNGFIRNYTIFYRTIIGNETAVNVDSSHTEYTLSSLTSDTLYMVRMAAYTDEGGKDGPEFTFTTPKFAQGEIE
B2: sgp130^FlyFc (Fc fusion, human, UniProt P40189 23-619, looked up)
chain: B1 chain with T80Y, Q91F, N92L
B3: sgp130^R281QFc (Fc fusion, human, UniProt P40189 23-619, looked up)
chain: B1 chain with R259Q
B4: Hyper IL-11 (HIL-11), IL-11 covalently linked to sIL-11R (other)
chain: SSPCPQAWGPPGVQYGQPGRSVKLCCPGVTAGDPVSWFRDGEPKLLQGPDSGLGHELVLAQADSTDEGTYICQTLDGALGGTVTLQLGYPPARPVVSCQAADYENFSCTWSPSQISGLPTRYLTSYRKKTVLGADSQRRSPSTGPWPCPQDPLGAARCVVHGAEFWSQYRINVTEVNPLGASTRLLDVSLQSILRPDPPQGLRVESVPGYPRRLRASWTYPASWPCQPHFLLKFRLQYRPAQHPAWSTVEPAGLEEVITDAVAGLPHAVRVSARDFLDAGTWSTWSPEAWGTPSTGTIPKEIPAWGQLHTQPEVEPQVDSPAPPRPSLQPHPRLLDHRDSVEQVAVLAPGPPPGPPRVSPDPRAELDSTVLLTRSLLADTRQLAAQLRDKFPADGDHNLDSLPTLAMSAGALGALQLPGVLTRLRADLLSYLRHVQWLRRAGGSSLKTLEPELGTLQARLDRLLRRLQLLMSRLALPQPPPDPPAPPLAPPSSAWGGIRAAHAILGGLHLTLDWAVRGLLLLKTRL
B5: IL-27 (complex)
chain 1: FPRPPGRPQLSLQELRREFTVSLHLARKLLSEVRGQAHRFAESHLPGVNLYLLPLGEQLPDVSLTFQAWRRLSDPERLCFISTTLQPFHALLGGLGTQGRWTNMERMQLWAMRLDLRDLQRHLRFQVLAAGFNLPEEEEEEEEEEEEERKGLLPGALGSALQGPAQVSWPQLLSTYRLLHSLELVLSRAVRELLLLSKAGHSVWPLGFPTLSPQP
chain 2: RKGPPAALTLPRVQCRASRYPIAVDCSWTLPPAPNSTSPVSFIATYRLGMAARGHSWPCLQQTPTSTSCTITDVQLFSMAPYVLNVTAVHPWGSSSSFVPFITEHIIKPDPPEGVRLSPLAERQLQVQWEPPGSWPFPEIFSLKYWIRYKRQGAARFHRVGPIEATSFILRAVRPRARYYVQVAAQDLTDYGELSDWSLPATATMSLGK

How the values were obtained:
[1] = biological target: B4; assay: cell-based or functional assay
sgp130Fc [2] = biological target: B1; assay: SPR; Biacore X100, multi-cycle; sgp130Fc variants captured on a Protein A chip (~500 RU); HIL-6 or HIL-11 injected at 0.1953-50 nM, 30 µl/min; 25 °C, PBS pH 7.4, 0.05% surfactant P20; 1:1 binding model; details: both partners purified
sgp130^FlyFc [3] = biological target: B2; assay: as above; details: both partners purified
sgp130^R281QFc = biological target: B3; assay: as above; details: both partners purified
sgp130Fc [4] = biological target: B1; assay: SPR; sgp130Fc and sgp130^FlyFc captured on a ProtA chip; increasing concentrations of IL-27 injected; details: both partners purified
sgp130^FlyFc [5] = biological target: B2; assay: as above; details: both partners purified

B1
IC50 of inhibition of H-IL-11 (10 ng/ml) induced proliferation of Ba/F3-gp130 cells (blocks HIL-11 from membrane-bound gp130) [1]: 0.12 nM

B2
IC50 of inhibition of H-IL-11 (10 ng/ml) induced proliferation of Ba/F3-gp130 cells (blocks HIL-11 from membrane-bound gp130) [1]: 40.7 nM

B3
IC50 of inhibition of H-IL-11 (10 ng/ml) induced proliferation of Ba/F3-gp130 cells (blocks HIL-11 from membrane-bound gp130) [1]: 72.8 nM

B4
Kd (sgp130Fc [2]): 0.069 nM
Kd (sgp130^FlyFc [3]): 0.67 nM
Kd (sgp130^R281QFc): 0.61 nM

B5
Kd (sgp130Fc [4]): 69 nM
Kd (sgp130^FlyFc [5]): 58 nM
